In US20250215412A1 (NOVOZYMES A S, published 2025):

Tests used:
Assay in all cases: cell-based or functional assay
[1] = target: T1, Chryseobacterium culicis deamidase polypeptide, wildtype, with His-tag (Chryseobacterium culicis)
T1 chain: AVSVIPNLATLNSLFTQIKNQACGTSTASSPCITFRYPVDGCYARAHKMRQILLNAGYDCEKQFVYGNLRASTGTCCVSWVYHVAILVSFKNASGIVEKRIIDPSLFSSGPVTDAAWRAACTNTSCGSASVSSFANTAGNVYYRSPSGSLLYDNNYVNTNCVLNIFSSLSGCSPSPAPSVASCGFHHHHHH

[2] = target: T2, Chryseobacterium defluvii deamidase polypeptide, wildtype, with His-tag (Chryseobacterium defluvii)
T2 chain: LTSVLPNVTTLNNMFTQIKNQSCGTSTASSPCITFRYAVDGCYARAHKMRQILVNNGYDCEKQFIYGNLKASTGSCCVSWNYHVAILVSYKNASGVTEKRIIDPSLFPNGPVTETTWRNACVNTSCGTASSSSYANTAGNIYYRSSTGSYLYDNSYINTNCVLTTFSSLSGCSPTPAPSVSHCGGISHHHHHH

[3] = target: T3, Chryseobacterium gambrini deamidase polypeptide, wildtype, with His-tag (Chryseobacterium gambrini)
T3 chain: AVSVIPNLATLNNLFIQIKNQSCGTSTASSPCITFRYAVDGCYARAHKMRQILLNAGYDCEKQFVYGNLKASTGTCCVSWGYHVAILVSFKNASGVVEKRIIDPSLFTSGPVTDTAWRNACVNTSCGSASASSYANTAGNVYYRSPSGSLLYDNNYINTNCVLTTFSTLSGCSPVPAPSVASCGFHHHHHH

[4] = target: T4, Chryseobacterium proteolyticum deamidase polypeptide, wildtype, with His-tag (Chryseobacterium proteolyticum, UniProt Q9AQQ8 136-320)
T4 sequence: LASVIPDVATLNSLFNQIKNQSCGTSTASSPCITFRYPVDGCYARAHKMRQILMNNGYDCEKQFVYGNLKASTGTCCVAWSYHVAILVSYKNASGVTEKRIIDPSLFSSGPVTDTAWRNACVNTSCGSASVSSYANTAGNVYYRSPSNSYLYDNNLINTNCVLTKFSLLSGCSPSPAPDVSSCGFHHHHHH

B1: Chryseobacterium culicis propeptide, wildtype (other)
chain: NQDPNLVAKESNEIAMKDFGKTVPVGIEKEEGKFKVSFMVSAQPYHIKDSKENAGYISMIRQAVENETPVHIFLKTNTNEIAKVDKPTDDDIRYFKSVFTKEVKEENRK
- NanoDSF thermal unfolding temperature [1]: 85.2 ° C.

B2: Chryseobacterium defluvii propeptide, wildtype (other)
chain: ATNQDVVGKENTSNHVAARDFGKTVPVGINEENGTLKVSFILSAQFYEIKPSKENEEYISLIRQAIQNESPIHVFMKLNSNEIVKVEKGTEEDVKYFRSILTKEVKEENRK
- NanoDSF thermal unfolding temperature [2]: 89 ° C.

B3: Chryseobacterium gambrini propeptide, wildtype (other)
chain: NQDPNLVVKENNENAMRDFGSTIPVGIQKEGNVLKVSFIISAQFYEIKDSKENEAFISMIKSAIENETPVHVFLKKNSNEIAKVEKATDEDVTYFKSIFTKEVKEENRK
- NanoDSF thermal unfolding temperature [3]: 89.3 ° C.

B4: Chryseobacterium proteolyticum propeptide, wildtype (other)
chain: NQEINGKEKLSVNDSKLKDFGKTVPVGIDEENGMIKVSFMLTAQFYEIKPTKENEQYIGMLRQAVKNESPVHIFLKPNSNEIGKVESASPEDVRYFKTILTKEVKEENRK
- NanoDSF thermal unfolding temperature [4]: 87.3 ° C.
